According to article PMC9547791 (Acta Neuropathologica, 2022):

Target: T1, STI1 TPR2A domain (residues 217-352) (mouse, UniProt Q60864 217-352)
T1 construct: STI1, mouse, TPR2A domain, residues 217-352; The tag is TEV-cleavable
Details: both partners purified

T1 sequence (Q60864 217-352): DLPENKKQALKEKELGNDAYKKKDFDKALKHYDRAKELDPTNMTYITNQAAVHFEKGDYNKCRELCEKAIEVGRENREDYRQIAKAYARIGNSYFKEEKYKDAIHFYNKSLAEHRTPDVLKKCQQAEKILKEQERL

B1: Hsp90 pentapeptide (MEEVD), C-terminus of Hsp90 (peptide)
peptide: MEEVD
notes: pentapeptide motif of the C-terminus of Hsp90; also called Hsp90 peptide
- binding result: binds
